Test results taken from doi:10.1101/2025.05.20.655083.

Target: BSB PyV-LTA;mNLSn peptide (Black Sea Bass polyomavirus)
Assay: fluorescence polarisation

mouse importin α2 ΔIBB (from UniProt P52293 70-529) (domain or fragment)
fold decrease of binding affinity against BSB PyV-LTA;NLS: 10 times
